Results published in the DeepSol protein solubility set.

Assay: soluble on expression in E. coli; label from the status in PepcDB or PDB records

Sequence | soluble on expression in E. coli
MSLSAQHAAHAQADTITALGAYLTTLAESHGQDEVAQAMCEIATQTLPRSCGELWQLSLDREGWYHGGGWQTGTVLPPQGYTLRATLPRGPTDELRLPLQAHGLTVGEVRAPYEGLESEQEQQLLQTLSTAAAISLSGHLLQRRVRHRNVRDPLTGLFNRRYLEDTLERELHRARRVNAGLVLIRLEVDTLDAFAAEHGSETADRLMQAMADAVHHAFRGSDVCCRAGDDGFGILLPDASLDNGAMRAEAVREELAELRIHQRGRPLGPVTVSAGVAAYPDHSSNRDLLLDAAESAVTRARDEGGDVLRIAELVSPPNPNQGHHHHHH | soluble
MASRGKTETSKLKQNLEEQLDRLMQQLQDLEECREELDTDEYEETKKETLEQLSEFNDSLKKIMSGNMTLVDELSGMQLAIQAAISQAFKTPEVIRLFAKKQPGQLRTRLAEMDRDLMVGKLERDLYTQQKVEILTALRKLGEKLTADDEAFLSANAGAILSQFEKVSTDLGSGDKILALASFEVEKTKK | not soluble
MPMNTTGMSFSSFGISCHRENSFRNSFRGKNDEVVKCSIGERTISFSVRKFSGNILETVRRQSTKDIDEWIKDERIVYPSRVINQEIDNYCFQKNAKISTEERQRVFFLVSQENQLTLDVKAAQSSINHVIMGSASFGKKMDALCDGMSRDVKNRTSDTIANLLADKFYQKHIDSDIDIVKLRNDIPDYLMRAIQG | not soluble
GGGGGGMKRFYIANEDEIKAGKTTDVYFLRTKKILEVKNIRKKVLADVTTTSLPNNWRWGVLVGVEEVAKLLEGIPVNVYAMPEGTIFHPYEPVLQIEGDYADFGIYETALLGMLSQASGIATAALRIKIAAKFKPVYSFGIRHMHPAIAPMIDRAAFIGGCDGVSGVLGAEMMGEKAVGTMPHALIITVGDQVKAWKYFDEVIEEEVPRIALVDTFYDEKVEAVMAAEALGKKLFAVRLDTPSSRRGNFRKIIEEVRWELKVRGYDWVKIFVSGGLDEEKIKEIVDVVDAFGVGGAIASAKPVDFALDIVEVEGKPIAKRGKLSGRKQVYRCENGHYHVVPANKKLERCPVCNAKVEPLLKPIIENGEIVVEFPKAREIREYVLEQAKKFNLEI | soluble
MGSDKIHHHHHHMRGCFSVTGVEDVCERLGVPCVPLDDPVEVSGEVFQKIKISRKVLEADKVVNLPKLKTHSQMVMTLGVKNTFGCVVGLEKSSWHMRAKNYDDFANLLIDIHRIVSPVLTILDGVEGMEGNGPTNGKKKHFGLVAVSKNAFALDDAVCKALGIDHVVYTVQHARKRRVVPDYEIVGTFHASIQLPSTVSTLDRLSRTFSRFFVKYPKIDTRKCVKCRLCEERCPASAIDISSQRIDYQKCIRCYVCHEVCPQDAIKLVRRLV | not soluble
MSLSKENIRKTSKIETKSKEFSRQNMIDLFDLYFYEDCPYQDESAELLRLVGRGKMRIVSRENGTSACAGDLAGYYEKKGLKVLNYFRDGENFKPGDAIFEAEGDIKLIFRFWRVSQTFLTMMCAIATKTASMVSEARRTNPDIIIATSRKTHPGARIFELKAVRAGGGDIHRNSLSDSIQISQNHLEVAGELGKLRAMKKIEIEPRSREEAFKYAEMSDIMLLDHLSPEELRELGPELKELNPELELAVGGIEAKRIPEYAPFVDIIVISAPYYANPLDFTTKIEREGHHHHHH | soluble
MASLWRAVIGGQNNNSEDYGGVEFWSNPERTGWLTKQGEYIKTWRRRWFVLKQGKLFWFKDSDVTRVSRPRGVVPVESCLTAKGAEDVLNKQNAFELSTRNETMYFIADSEKEKEDWINSIGRSIVQNSRSVTDSEIVDYDNKH | soluble
MKGYIHVYTGNGKGKTTAALGLATRAACAGLKVFFGQFLKGRETSELKISEFLPNFEIVQYGTPEFIVGNPSEEQIKKAKSGLADAKERLVSEKYDVVVLDELCVAIHLGLFSKEEIEDLLNVKPENVELVITGRYAPEWLIEKADLVTEMKEVKHYYQKGVVARKGIEY | soluble
MSTLLDRVPCTIVTGFLGAGKTTLLRGLLEKLDGKRLAIIVNEFGDIGIDGEILKGCGIESCPEENIVELANGCICCTVADDFQPAIEQILSRQPKVEHILIETSGLALPKPLVQAFQWPAIKSRVTVDAVVAVVDGAALAEGQVAHDMEALAAQRANDEALDHDDPVEEVFEDQVACADLIVLTKADLLDDAGLEKAKAHILEHLPKAAKIVVASNGAIDPTVLIGLGLAVEEDIENRRTHHDGELDHEHDDFDSFVIDLPAVTDPEALAARIAQTAAAENVLRIKGFIEVATKPMRLQVQAVGSRVNHYYDRPWAAGEERRSRLVVIGEKGINREKIEQMLAA | not soluble
MGSDKIHHHHHHMLKFLKDSKVDFTVRCCGVSSIPCALFFLTRSTNRTYSILVKEWKNIEKLLDPFFTKGIDQLSMVDALRILMRIGDTLNGVRNHERLYRYIDSLFPAQKIPGGLEIWAFDLFEGKEVVFKEGDDLRRALKISLSFPILYRPYEDRYVPITWITGVPEGELTVLFDVKKEKNPPRNALEYLFLSTTARTKHLERERIKKAKSLRIACTSLSPVSTTRRAYEEFSRFFEEVVL | not soluble
MAKFNVENEHVEVEIEKLYKFSPELVYEAWTKKDLLKQWFMTSARTNKEIEADVKEGGKYRIVDQQRNGKVNVIEGIYESLVMDEYVKMTIGMPGLSETQDVIEVEFFERETGGTQMLFYYRSLVEKERRFTNLEYKQKKKEYHDAMVHGFELMFDKMYHVIETSTQQ | soluble
MSGVSTAAYFARRAAQKERVRILYRRALKDTLNWAVHRHIFYRDEDVDRIDKLIAHGEAEYNKWRHPDPYIVPWAPGGSKFCRNPTPPAGIEIVYNYGLEDNP | not soluble
MGSSHHHHHHSSGLVPRGSKITVNPESKAVLAGQFVKLCCRATGHPFVQYQWFKMNKEIPNGNTSELIFNAVHVKDAGFYVCRVNNNFTFEFSQWSQLDVCDIPESFQRSVDGVSESKLQICVEPTSQKLMPGSTLVLQCVAVGSPIPHYQWFKNELPLTHETKKLYMVPYVDLEHQGTYWCHVYNDRDSQDSKKVEIIIDELNNLGHPDNKEQTTDQ | soluble
MGSDKIHHHHHHMKNIFVFGADEFNLSLMRSLDSAHEYCFHELYQYSEVKTGKEFPVETLYEGALARLNSYPDSVDAIVGYLDFPVSTMLPLLCQSLGLPSPSFEAVLKCEHKYWSRLEQRRVIPEYIPNFCSVDPFKDDYRQQITLDYPFWLKPVKAVLSHLGFMVRDDSELEMAIIEIRKKIYCFAKPFNYLLQFADLPDEIAAVDGYHCIAEGIISHGQQCTLEGYVFDGKLCVYGTVDSIREGEHGSSFSRYQYPSSIPQPIQDKMIAVTERFLTAIDFDNGPFNIEYYWDKDSDHIWLLEINTRISKSHSPLFRNVDGKSHHQIMLDLALGKQPIFPHRKGLYRYSAKFMWRTHADAQVNRVPTEQEIQAITQRIGGTDIQLHVREGMRLSDLNYQDSYSYEIATVFIGGDSEQELLQKYHDVQQALPLELVPLL | not soluble
EVPTIDGRAKIRIEAGTQPGKMLRLRNKGLPSVNGYGMGDQLVNVNVYIPESIDAKDEQAIAAMENSDSFKPTDAARKDIDKKYREMLD | not soluble
QECTKFKVSSCRECIESGPGCTWCQKLNFTGPGDPDSIRCDTRPQLLMRGCAADDIMDPTSLAETQEDHNGGQKQLSPQKVTLYLRPGQAAAFNVTFRRAKGY | soluble
MSSNAQVRPPLPPFTRESAIEKIRLAEDGWNSRDPERVSLAYTLDTQWRNRAEFAHNREEAKAFLTRKWAKELDYRLIKELWAFTDNRIAVRYAYEWHDDSGNWFRSYGNENWEFDEQGLMARRFACINDMPIKAQERKFHWPLGRRPDDHPGLSELGLLEHHHHHH | soluble
MITSPTNLNSLPIPPGDFGLPWLGETLNFLNDGDFGKKRQQQFGPIFKTRLFGKNVIFISGALANRFLFTKEQETFQATWPLSTRILLGPNALATQMGEIHRSRRKILYQAFLPRTLDSYLPKMDGIVQGYLEQWGKANEVIWYPQLRRMTFDVAATLFMGEKVSQNPQLFPWFETYIQGLFSLPIPLPNTLFGKSQRARALLLAELEKIIKARQQQPPSEEDALGILLAARDDNNQPLSLPELKDQILLLLFAGHETLTSALSSFCLLLGQHSDIRERVRQEQNKLQLSQELTAETLKKMPYLDQVLQEVLRLIPPVGGGFRELIQDCQFQGFHFPKGWLVSYQISQTHADPDLYPDPEKFDPERFTPDGSATHNPPFAHVPFGGGLRECLGKEFARLEMKLFATRLIQQFDWTLLPGQNLELVVTPSPRPKDNLRVKLHSLM | soluble
MSLSLSLAEARRLALAAQGFDGRRTRRSVQRRHLREMLARLGLLQIDSVNALVRSHYLPLFSRLGPYSMTLLDEAAWSVGRHRQLFEYWGHEASLLPLEHYPLMRWRMRQAADGQGIYQQLARFGREQQPLIRQVLQAVREQGALGAGSLSTRQERAGPWWDWSAEKHALEWLFAAGELTVAGRRGFERLYDLPERVFPAELLARPELSEAQAQRELLRMAASALGVATEKDLRDYYRLSPAQSRARLAELVEAGELLPVRVEGWSQPAYCPGEPQVPRRLGASALLSPFDSLVWERARAERLFDFRYRLEIYTPKEKRVYGYYVLPFLYNGRLVGRVDLRAERARERLVVHALHAEANGMDDAALHELAEQLRSMAAWLGLATVAIEGRGELAVRLRGVLLLEHHHHHH | not soluble
MGFNVKTPLLATDVIIRLWDGENFKGIVLIERKYPPVGLALPGGFVEVGERVEEAAAREMREETGLEVRLHKLMGVYSDPERDPRAHVVSVVWIGDAQGEPKAGSDAKKVKVYRLEEIPLDKLVFDHKKIILDFLKGNY | soluble
MAHHHHHHMTSQPHVTMSKNTGSVTEQHKRMSHTTGDNNEEEKHILAGRYKTKLCKNYVARGECPYDVRCMFAHGEDELRTSDDNIRDGLVTEEAIKDFQRQQNQAKRRAAFAAAREHNNHDHSHSHNHSHSHNHTVRPVPHGNVYEMEENVESNEVYRNRNRHHNLRLHPPQEPVSIPQPQQQQQQEQQFQLQSVVAQYYTHNPYVFDLIPAAARLFPVYQEVVEEGCWYEEEPVPAQEDYYFPSSDMMMPLVPSLVTQQYLPYPHQQCSKQLETVASASTYSCEEAMYGHSESSASSAYRSVARCTAAELPSNSDIPAMVMEP | not soluble
MGSDKIHHHHHHMENQTGIFNSYKIDPAHFDEAWLPTGDVRMHYKHLMETFKGLDIEEYLKINELAKGNLFNQGVTFNVYSENAEGVERLFPFDLFPRMIPSEEWKTIEVGIKQRNKAINLFLWDIYHEQKILKDKIVPSELLFSSQFYKKEMIGVDPPAGIYIHITGTDIIKHNDGKYYVLEDNLRCPSGVSYVLSNRETMKKIFFNLFSRYHVKPIMQYTEKLLSTIRSVAPDRIDNPLCVILTPGTYNSAYFEHSFLAHQMGIQLVEGRDLFVEKNFVYMKTIKGPKRVDVIYRRVDDDFIDPLVFNPKSVLGVPGLMSAYQAGNVTIINAPGTGVADDKAVYTYVPDIIKYYLGEEPILNNVPTYRCERPDEMKYVLENMHNLVVKPVDESGGYGVFIGNRKTKEEIEEYKKLILDTPRKYIAQPIMSLSVLSTFIEDSNESEQRHIDLRSFALMGKEETYVLDGGLTRVALSKGNLIVNSSQGGGSKDTWVIENY | not soluble
MGHHHHHHSHMVEFPLPPHLTCAVIKAASLDCEDLLLPIAAMLSVENVFIRPVDPEYQKEAEQRHRELAAKAGGFNDFATLAVIFEQCKSSGAPASWCQKHWIHWRCLFSAFRVEAQLRELIRKLKQQSDFPKETFEGPKHEVLRRCLCAGYFKNVARRSVGRTFCTMDGRGSPVHIHPSSALHEQETKLEWIIFHEVLVTTKVYARIVCPIRYEWVRDLLPKLHEFNAHDLSSVARREVREDARRRWTNKENVKQLKDGISKDVLKKMQRRNDDKSISDARARFLERKQQRTQDHSDTRKETG | not soluble
